Among the data in the supplement of paper PMC10567573 are protein stability index values, retold here.

To fix the notation:
B1: WDR41 (parent)
chain: HVGELIIWDALDWTMQAYERNFWD
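Also: lentivirally expressed fusions sorted by FACS into six bins by GFP to DsRed ratio, PSI derived from sequencing read proportions per bin multiplied by bin number.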

The data set covers variants of B1. The data set can be described thus: protein stability index of a GFP-peptide fusion (GPS, HEK-293T) (PSI 1-6); higher = more stable. The conditions noted are these: c terminus: a fixed tail appended.
In the case of HVGELIIWDALDWKMQAYERNFWD [T14K], the protein stability index turned out to be 2.31. In the case of HVGELIIWDALDWGMQAYERNFWD [T14G], the protein stability index was 2.08. The figure for HVGELIIWDALDWYMQAYERNFWD [T14Y] is 4.99; for HVGELIIWDALDWNMQAYERNFWD [T14N] it is 1.42. Take HVGELIIWDALDWVMQAYERNFWD [T14V]: the protein stability index was determined as 2.54.

For HVGELIIWDALDWDMQAYERNFWD [T14D], the protein stability index was found to be 1.68. As for HVGELIIWDALDWPMQAYERNFWD [T14P], the protein stability index was 2.28. With HVGELIIWDALDWQMQAYERNFWD [T14Q], the protein stability index turned out to be 1.38. As to HVGELIIWDALDWSMQAYERNFWD [T14S], the protein stability index came out at 1.24. The figure for HVGETIIWDALDWTMQAYERNFWD [L5T] is 1.94. As for HVGEKIIWDALDWTMQAYERNFWD [L5K], the protein stability index amounted to 2.21.

As for HVGEHIIWDALDWTMQAYERNFWD [L5H], the protein stability index stood at 1.56. For HVGEMIIWDALDWTMQAYERNFWD [L5M], the protein stability index turned out to be 1.97. With HVGESIIWDALDWTMQAYERNFWD [L5S], the protein stability index was 1.47. The figure for HVGEPIIWDALDWTMQAYERNFWD [L5P] is 1.99. With HVGEYIIWDALDWTMQAYERNFWD [L5Y], the protein stability index is 3.11.

In the case of HVGEQIIWDALDWTMQAYERNFWD [L5Q], the protein stability index turned out to be 2.13.

In the case of HVGERIIWDALDWTMQAYERNFWD [L5R], the protein stability index was found to be 1.5. On to HVGEAIIWDALDWTMQAYERNFWD [L5A], for which the protein stability index worked out at 1.95. On to HVGEDIIWDALDWTMQAYERNFWD [L5D], for which the protein stability index was 2.17. Turning to HVGEGIIWDALDWTMQAYERNFWD [L5G], the protein stability index is 1.92. For HVGEFIIWDALDWTMQAYERNFWD [L5F], the protein stability index stood at 3.54.

As to HVGENIIWDALDWTMQAYERNFWD [L5N], the protein stability index is 1.93. Regarding HVGELIIWDALDNTMQAYERNFWD [W13N], the protein stability index was 1.69.

Consider HVGELIIWDALDETMQAYERNFWD [W13E], for which the protein stability index came to 1.59. Turning to HVGELIIWDALDHTMQAYERNFWD [W13H], the protein stability index was found to be 2.04.

With HVGELIIWDALDFTMQAYERNFWD [W13F], the protein stability index was found to be 4.66.

In the case of HVGELIIWDALDQTMQAYERNFWD [W13Q], the protein stability index was found to be 2.21.

HVGELIIWDALDTTMQAYERNFWD [W13T]: the protein stability index stood at 1.97. As for HVGELIIWDALDATMQAYERNFWD [W13A], the protein stability index was 1.98. For HVGELIIWDALDPTMQAYERNFWD [W13P], the protein stability index came out at 1.52. The figure for HVGELIIWDALDCTMQAYERNFWD [W13C] is 2.51. For the variant HVGELIIWDALDDTMQAYERNFWD [W13D], the protein stability index was determined as 2.07.

With HVGELIIWDALDSTMQAYERNFWD [W13S], the protein stability index is 3.29. With HVGELIIWDALDYTMQAYERNFWD [W13Y], the protein stability index was 2.84. For HVGELIIWDALDKTMQAYERNFWD [W13K], the protein stability index stood at 2.37. Turning to HVGELIIWDALYWTMQAYERNFWD [D12Y], the protein stability index was determined as 1.11.

For HVGELIIWDALPWTMQAYERNFWD [D12P], the protein stability index amounted to 2.1. In the case of HVGELIIWDALKWTMQAYERNFWD [D12K], the protein stability index turned out to be 2.15. Turning to HVGELIIWDALFWTMQAYERNFWD [D12F], the protein stability index was determined as 3.35. Regarding HVGELIIWDALVWTMQAYERNFWD [D12V], the protein stability index is 2.81. Then HVGELIIWDALDWTMGAYERNFWD [Q16G], with 1.78. Take HVGELIIWDALDWTMCAYERNFWD [Q16C]: the protein stability index was found to be 2.77. Then HVGELIIWDAVDWTMQAYERNFWD [L11V], with 3.1. With HVGELIIWDAADWTMQAYERNFWD [L11A], the protein stability index amounted to 1.61.

As to HVGELIIWDADDWTMQAYERNFWD [L11D], the protein stability index was determined as 1.77. As to HVGELIIWDAPDWTMQAYERNFWD [L11P], the protein stability index was determined as 2.03.

Turning to HVGELIIWDATDWTMQAYERNFWD [L11T], the protein stability index was 1.46. With HVGELIIWDACDWTMQAYERNFWD [L11C], the protein stability index was determined as 2.2. Take HVGELIIWDAHDWTMQAYERNFWD [L11H]: the protein stability index was found to be 2.06. In the case of HVGELIIWDAQDWTMQAYERNFWD [L11Q], the protein stability index is 2.86. Consider HVGELIIWDARDWTMQAYERNFWD [L11R], for which the protein stability index came to 2.83. Turning to HVGELIIWDAYDWTMQAYERNFWD [L11Y], the protein stability index stood at 2.08. On to HVGELIIWDAIDWTMQAYERNFWD [L11I], for which the protein stability index came to 3.82. Regarding HVGELIIWDAKDWTMQAYERNFWD [L11K], the protein stability index was 2.67. As to HVGELIIWDANDWTMQAYERNFWD [L11N], the protein stability index stood at 2.23.

On to HVDELIIWDALDWTMQAYERNFWD [G3D], for which the protein stability index turned out to be 2.35. HVYELIIWDALDWTMQAYERNFWD [G3Y]: the protein stability index stood at 2.42.

HVVELIIWDALDWTMQAYERNFWD [G3V]: the protein stability index was determined as 4.45.

Consider HVTELIIWDALDWTMQAYERNFWD [G3T], for which the protein stability index was 2.82. The figure for HVLELIIWDALDWTMQAYERNFWD [G3L] is 1.72.

Consider HVHELIIWDALDWTMQAYERNFWD [G3H], for which the protein stability index worked out at 2.49.

As for HVKELIIWDALDWTMQAYERNFWD [G3K], the protein stability index was 2.06.

With HVNELIIWDALDWTMQAYERNFWD [G3N], the protein stability index was found to be 1.89. For the variant HVQELIIWDALDWTMQAYERNFWD [G3Q], the protein stability index came out at 2.54. The figure for HVEELIIWDALDWTMQAYERNFWD [G3E] is 1.87; for HVSELIIWDALDWTMQAYERNFWD [G3S] it is 1.84. With HVRELIIWDALDWTMQAYERNFWD [G3R], the protein stability index stood at 1.87. Consider HPGELIIWDALDWTMQAYERNFWD [V2P], for which the protein stability index was found to be 1.54. Then HLGELIIWDALDWTMQAYERNFWD [V2L], with 3.8; and HAGELIIWDALDWTMQAYERNFWD [V2A], with 1.58. Consider HSGELIIWDALDWTMQAYERNFWD [V2S], for which the protein stability index is 2.47. Turning to HHGELIIWDALDWTMQAYERNFWD [V2H], the protein stability index was determined as 2.44. Turning to HCGELIIWDALDWTMQAYERNFWD [V2C], the protein stability index amounted to 1.97. For HDGELIIWDALDWTMQAYERNFWD [V2D], the protein stability index was determined as 2.01. As for HNGELIIWDALDWTMQAYERNFWD [V2N], the protein stability index is 1.48. Turning to HMGELIIWDALDWTMQAYERNFWD [V2M], the protein stability index was 2.59.

On to HEGELIIWDALDWTMQAYERNFWD [V2E], for which the protein stability index was found to be 1.51. On to HFGELIIWDALDWTMQAYERNFWD [V2F], for which the protein stability index is 2.69.

On to HGGELIIWDALDWTMQAYERNFWD [V2G], for which the protein stability index came out at 1.65. On to HKGELIIWDALDWTMQAYERNFWD [V2K], for which the protein stability index came to 2.35. For HIGELIIWDALDWTMQAYERNFWD [V2I], the protein stability index was found to be 2.08. Then HQGELIIWDALDWTMQAYERNFWD [V2Q], with 2.35. The figure for HTGELIIWDALDWTMQAYERNFWD [V2T] is 1.92; for HRGELIIWDALDWTMQAYERNFWD [V2R] it is 1.09. For the variant HVGSLIIWDALDWTMQAYERNFWD [E4S], the protein stability index amounted to 2.34. For HVGALIIWDALDWTMQAYERNFWD [E4A], the protein stability index was determined as 2.85. Then HVGHLIIWDALDWTMQAYERNFWD [E4H], with 2.13; and HVGPLIIWDALDWTMQAYERNFWD [E4P], with 1.81; and HVGVLIIWDALDWTMQAYERNFWD [E4V], with 3.53. In the case of HVGNLIIWDALDWTMQAYERNFWD [E4N], the protein stability index came out at 2.42. As to HVGDLIIWDALDWTMQAYERNFWD [E4D], the protein stability index came out at 1.86.

For the variant HVGKLIIWDALDWTMQAYERNFWD [E4K], the protein stability index is 1.84. Regarding HVGLLIIWDALDWTMQAYERNFWD [E4L], the protein stability index is 2.92.
